Test [1] has as its target T1, human SLC34A2 (human, UniProt O95436 1-690).
T1 sequence (looked up): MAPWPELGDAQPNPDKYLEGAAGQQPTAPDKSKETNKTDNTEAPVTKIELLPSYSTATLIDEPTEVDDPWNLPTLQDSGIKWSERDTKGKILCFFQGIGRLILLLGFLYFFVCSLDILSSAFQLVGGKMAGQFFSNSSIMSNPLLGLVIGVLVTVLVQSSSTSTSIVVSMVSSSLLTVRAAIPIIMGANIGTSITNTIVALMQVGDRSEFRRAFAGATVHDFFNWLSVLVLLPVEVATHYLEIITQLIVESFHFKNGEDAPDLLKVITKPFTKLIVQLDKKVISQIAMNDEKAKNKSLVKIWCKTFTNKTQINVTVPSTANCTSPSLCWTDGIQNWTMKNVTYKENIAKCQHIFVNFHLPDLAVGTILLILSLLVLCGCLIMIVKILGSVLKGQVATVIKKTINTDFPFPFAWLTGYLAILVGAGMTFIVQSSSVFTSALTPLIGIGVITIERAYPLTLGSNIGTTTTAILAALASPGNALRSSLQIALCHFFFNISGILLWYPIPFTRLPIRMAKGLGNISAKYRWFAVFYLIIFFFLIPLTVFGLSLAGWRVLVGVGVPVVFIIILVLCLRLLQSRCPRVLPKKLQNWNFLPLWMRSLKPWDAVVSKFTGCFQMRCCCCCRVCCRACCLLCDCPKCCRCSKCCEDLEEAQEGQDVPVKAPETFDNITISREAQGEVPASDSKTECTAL
Briefly: cell-based or functional assay.

Another test addresses T2, Cynomolgus SLC34A2 (Cynomolgus, UniProt A0A2K5UHY1 1-690).
T2 construct: whole, on cells; also called Cyno SLC34A2
T2 sequence: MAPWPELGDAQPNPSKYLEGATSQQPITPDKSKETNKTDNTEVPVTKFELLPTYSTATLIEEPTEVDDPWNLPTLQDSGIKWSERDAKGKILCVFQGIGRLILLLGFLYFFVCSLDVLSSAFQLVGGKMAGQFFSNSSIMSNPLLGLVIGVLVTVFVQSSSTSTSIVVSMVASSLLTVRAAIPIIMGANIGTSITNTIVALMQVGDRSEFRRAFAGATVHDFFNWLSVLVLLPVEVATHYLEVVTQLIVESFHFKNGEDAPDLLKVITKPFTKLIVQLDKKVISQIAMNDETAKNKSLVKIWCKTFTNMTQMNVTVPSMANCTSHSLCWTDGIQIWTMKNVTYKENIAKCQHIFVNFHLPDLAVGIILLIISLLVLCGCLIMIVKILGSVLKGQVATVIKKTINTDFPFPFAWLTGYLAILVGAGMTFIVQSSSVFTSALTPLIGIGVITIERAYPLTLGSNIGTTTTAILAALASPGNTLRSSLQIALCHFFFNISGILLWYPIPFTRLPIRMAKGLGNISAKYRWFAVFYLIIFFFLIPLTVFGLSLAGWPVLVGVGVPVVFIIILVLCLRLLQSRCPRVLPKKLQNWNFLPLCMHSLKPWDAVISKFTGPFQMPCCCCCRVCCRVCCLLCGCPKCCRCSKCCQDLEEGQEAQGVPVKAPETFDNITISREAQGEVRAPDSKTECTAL
The test is described as follows: FACS, cells expressing Cynomolgus SLC34A2. Background: A flow cytometer gives signals particle by particle.

In test [2] the target is T1, human SLC34A2. Briefly: FACS, RMG-1 cells. On the procedure: Based on the foregoing cell-based binding results, some of the chimeric antibodies were selected for further cell based binding on human SLC34A2 expressing cells using flow cytometry. RMG-1 cells were incubated with the selected chimeric antibodies (from 200 nM, 4 folds dilution, 8 points). After incubation at 4° C. for 60 minutes, the cells were washed with FACS buffer twice, then stained with fluorescent conjugated secondary antibody at 4° C. for 30 minutes. Afterwards the cells were washed twice and analyzed by flow cytometry.

Another test deals with T3, Rhesus SLC34A2 (Rhesus, UniProt F7HDA3 1-690).
T3 construct: whole, on cells
T3 sequence: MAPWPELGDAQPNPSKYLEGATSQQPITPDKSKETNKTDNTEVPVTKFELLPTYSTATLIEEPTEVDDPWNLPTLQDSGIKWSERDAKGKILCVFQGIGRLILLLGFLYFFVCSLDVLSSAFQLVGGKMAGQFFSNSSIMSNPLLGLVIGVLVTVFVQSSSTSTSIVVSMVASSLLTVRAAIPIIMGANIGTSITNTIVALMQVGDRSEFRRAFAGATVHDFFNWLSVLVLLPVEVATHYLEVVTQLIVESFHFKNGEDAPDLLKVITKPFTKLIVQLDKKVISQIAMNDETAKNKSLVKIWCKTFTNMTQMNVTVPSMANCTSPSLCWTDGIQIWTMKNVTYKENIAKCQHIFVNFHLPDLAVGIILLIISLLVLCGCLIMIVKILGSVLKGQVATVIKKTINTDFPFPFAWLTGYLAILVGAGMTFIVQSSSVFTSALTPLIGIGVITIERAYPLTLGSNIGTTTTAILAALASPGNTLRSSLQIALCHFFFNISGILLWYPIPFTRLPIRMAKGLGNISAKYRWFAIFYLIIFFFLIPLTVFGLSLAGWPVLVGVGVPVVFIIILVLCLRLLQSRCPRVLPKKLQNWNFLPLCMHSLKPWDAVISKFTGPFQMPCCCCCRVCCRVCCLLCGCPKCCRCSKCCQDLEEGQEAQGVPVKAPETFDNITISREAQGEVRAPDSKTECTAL
The test is described as follows: FACS, HEK293/Rhesus SLC34A2 cells. On the procedure:
Briefly, the Rhesus SLC34A2 expressing HEK293 engineering cells (HEK293/Rhesus_SLC34A2) were incubated with chimeric Abs (from 200 nM, 4 folds dilution, 8 points). After incubation at 4° C. for 60 minutes, the cells were washed with FACS buffer twice, then stained with fluorescent conjugated secondary antibody at 4° C. for 30 minutes. After that the cells were washed twice and analyzed by flow cytometry.

In test [3] the target is T1, human SLC34A2. Briefly: cell-based or functional assay. The source holds these as a separate data set.
Test [4] addresses T1, human SLC34A2. The test is described as follows: FACS, HEK293/human SLC34A2 cells. How it is done:
(§1) Briefly, OVCAR3 cells or HEK293 cells expressing human SLC34A2 were incubated with chimeric antibodies (from 200 nM, 4 folds dilution, 8 points). After incubation at 4° C. for 60 minutes, the cells were washed with FACS buffer twice, then stained with fluorescent conjugated secondary antibody at 4° C. for 30 minutes. After that the cells were washed twice and analyzed by flow cytometry.

For test [5], the target named is T1, human SLC34A2. The test is described as follows: FACS, OVCAR3 cells. On the procedure:
In this example, cell based binding of chimeric antibodies (hIgG1) prepared from the murine antibodies on human SLC34A2 expressing cells were assessed using flow cytometry.
as §1

B1: xi28G3C6B9 hIgG1 (antibody, V domains shown)
VH: QVQLQQPGAEVVKPGASVKMSCKASGYTFTSYIIHWVKQAPGQGLEWIGAIYPGNGDTSYSQRFKGKAKLTADKSSSTAYMQLNSLTSEDSVVYYCARGNNYGSPAWFGYWGQGTLVTVSA
VL: DIVLTQSPVTLSVTPGDRVSLSCRASQSIGNFLYWYQQKSHESPRLLIKYASQSMSGIPSRFSGSGSGTDFTLSISRVETEDFGMYFCQQSNSWPVTFGAGTKLELK
notes: chimeric, hIgG1
For the molecule B1, the “ADCC reporter EC50” value with human SLC34A2 [1] came out at 6.4 nM. Besides, the “ADCC reporter Top (MFI)” value with human SLC34A2 [1] turned out to be 569000 MFI. For the same molecule, the half-maximal effective concentration (EC50) with Cynomolgus SLC34A2 worked out at 2.81 nM; with human SLC34A2 [2], 4.73 nM; with Rhesus SLC34A2 it was 3.19 nM; in the test with human SLC34A2 [4] it was 1.88 nM; with human SLC34A2 [5], 4.27 nM. The “Top (MFI)” value in the test with Cynomolgus SLC34A2 was 3770 MFI; with human SLC34A2 [2] it was 9420 MFI; in the test with Rhesus SLC34A2 it was 13400 MFI; in the test with human SLC34A2 [4] it was 107000 MFI; in the test with human SLC34A2 [5], 43000 MFI. The “cytotoxicity EC50” value with human SLC34A2 [3] was 0.36 nM. Also, in the test with human SLC34A2 [3], the “cytotoxicity Inhibition %” value is 86.4%.

B2: xi69B11D8 hIgG1 (antibody, V domains shown)
VH: EVQLQQSGPELVKPGAAVKISCKTSGYTFTDYTMHWVRQSHGKSLEWIGGIHPNNGGTGYNQKLRGKATLTVDKSSSTAYMELRSLTSDDSAVYYCARGRESDGWFTYWGQGTLVTFSA
VL: DVHMTQTTSSLSASLGDRVTITCSASQGIGNSLNWYQQQPDGTVKLLIYYTSRLHSGVPSRFSGSGSGTDYSLTISNLEPEDLATYYCQQYSRFPPTFGGGTKLEIK
notes: chimeric, hIgG1
As for B2, the “ADCC reporter EC50” value with human SLC34A2 [1] turned out to be 2.7 nM. Also, the “ADCC reporter Top (MFI)” value in the test with human SLC34A2 [1] stood at 216000 MFI. Besides, the EC50 is 88.3 nM with Cynomolgus SLC34A2; 1.7 nM with human SLC34A2 [2]; 1.68 nM with Rhesus SLC34A2; 1.19 nM in the test with human SLC34A2 [4]; 2.12 nM with human SLC34A2 [5]. The “Top (MFI)” value with Cynomolgus SLC34A2 stood at 2570 MFI; with human SLC34A2 [2], 9200 MFI; in the test with Rhesus SLC34A2 it was 11600 MFI; in the test with human SLC34A2 [4], 48000 MFI; with human SLC34A2 [5] it was 27700 MFI. For the same molecule, the “cytotoxicity EC50” value in the test with human SLC34A2 [3] is 0.67 nM. Also, the “cytotoxicity Inhibition %” value in the test with human SLC34A2 [3] turned out to be 86.9%.

B3: xi84F2D10 hIgG1 (antibody, V domains shown)
VH: QVQLQQPGAVLVKPGASVKMSCKASGYTFTSYNLHWVKQTPGQGLEWIGAIYPGNGDTSYIQKFKGKATLTADKSSSTAYMQLSSLTSEDSAVYYCARGKYGNYEGFAYWGQGTLVTVSA
VL: DILLTQSPAILSVSPGERVSISCRASQSIGTSIYWYQQRRNGSPRLLIKFASESISGIPSRFSGSGSGTDFTLSINSVESEDIADYYCQQNNRWPFTFGSGTKLEIK
notes: chimeric, hIgG1
B3: the “ADCC reporter EC50” value in the test with human SLC34A2 [1] came to 2.5 nM. Moreover, in the test with human SLC34A2 [1], the “ADCC reporter Top (MFI)” value was determined as 409000 MFI. The concentration for a half-maximal effect (EC50) in the test with Cynomolgus SLC34A2 was 68.5 nM; with human SLC34A2 [2], 4.33 nM; with Rhesus SLC34A2, 46 nM; with human SLC34A2 [4], 1.37 nM; in the test with human SLC34A2 [5], 3.84 nM. Besides, the “Top (MFI)” value is 1280 MFI with Cynomolgus SLC34A2; 8600 MFI with human SLC34A2 [2]; 8840 MFI with Rhesus SLC34A2; 109000 MFI in the test with human SLC34A2 [4]; 40500 MFI in the test with human SLC34A2 [5]. Further, the “cytotoxicity EC50” value with human SLC34A2 [3] was determined as 0.61 nM. In the test with human SLC34A2 [3], the “cytotoxicity Inhibition %” value is 102%.

B4: xi18G1H4 hIgG1 (antibody, V domains shown)
VH: QVQLQQPGAELVKPGASVRMSCKASAYTFTTYNLHWVKQTPGQGLEWIGAISPGNGVTSYNQKFRGKATLTADKSSSTAYMQLSSLTSEDSAVYYCARGYGYSVGAMDYWGQGTSVTVSS
VL: DIQMTQTTSSLSASLGDRVNISCSASQGIGNFLNWYQQKPDGTVKLLIYYTSSLHSGVPPRFSGSGSGTDYSLTISNLEPEDIATYYCQQYHKLPLTFGAGTKLELK
notes: chimeric, hIgG1
In the case of B4, in the test with human SLC34A2 [1], the “ADCC reporter EC50” value turned out to be 2.2 nM. For the same molecule, in the test with human SLC34A2 [1], the “ADCC reporter Top (MFI)” value came to 228000 MFI. Moreover, the EC50 with Cynomolgus SLC34A2 turned out to be 4.93 nM; with human SLC34A2 [2], 7.91 nM; with Rhesus SLC34A2, 2.9 nM; with human SLC34A2 [4] it was 0.86 nM; with human SLC34A2 [5] it was 2.75 nM. Moreover, the “Top (MFI)” value was 4090 MFI in the test with Cynomolgus SLC34A2; 9800 MFI with human SLC34A2 [2]; 14300 MFI in the test with Rhesus SLC34A2; 106000 MFI with human SLC34A2 [4]; 42500 MFI with human SLC34A2 [5]. Further, the “cytotoxicity EC50” value with human SLC34A2 [3] was determined as 0.36 nM. For the same molecule, the “cytotoxicity Inhibition %” value with human SLC34A2 [3] was 82.7%.

B5: xi16E5D10 hIgG1 (antibody, V domains shown)
VH: QVQLQQPGAELVKPGASVMMSCKASGYTFSNHNLHWLKKTPGQGLDWIGAIYPGNGDTSYNQKFKGRATLTVDKSSNTAYMQFSSLTSEDSAVFYCARGKYGNGAMDYWGQGTAVTVSS
VL: DIVMTQSHKFMSTSVGDRVSITCRASQDVGTAVVWYQQKLGQSPKLLFDWASSRHTGVPDRFTGSGSGTDFTLTITDVQSEDLADYFCQQYSRQPLTFGAGTKLELK
notes: chimeric, hIgG1
Regarding B5, the “ADCC reporter EC50” value with human SLC34A2 [1] amounted to 2.1 nM. Also, the “ADCC reporter Top (MFI)” value with human SLC34A2 [1] was found to be 238000 MFI. The EC50 with Cynomolgus SLC34A2 came out at 3.79 nM; in the test with human SLC34A2 [2], 3.76 nM; with Rhesus SLC34A2 it was 2.72 nM; with human SLC34A2 [4], 2.29 nM; with human SLC34A2 [5], 4.66 nM. The “Top (MFI)” value with Cynomolgus SLC34A2 was 3730 MFI; with human SLC34A2 [2], 9500 MFI; in the test with Rhesus SLC34A2, 14800 MFI; with human SLC34A2 [4], 47500 MFI; with human SLC34A2 [5], 27600 MFI. The “cytotoxicity EC50” value with human SLC34A2 [3] stood at 0.78 nM. Also, the “cytotoxicity Inhibition %” value with human SLC34A2 [3] is 93.1%.

A word on the EC50: it is the concentration at which the effect is half-maximal. The low end stands for higher potency in that assay, the high end for lower potency in that assay.

These data come from patent publication US20240301052A1 (LANOVA MEDICINES DEVELOPMENT, published 2024).
